Values quoted from earlier work, collected in PMC6205161.

Target: apo-GLRX5 (Homo sapiens) (UniProt Q86SX6)
Experiment: thermophoresis

Sequence of UniProt Q86SX6 (Q86SX6 32-157): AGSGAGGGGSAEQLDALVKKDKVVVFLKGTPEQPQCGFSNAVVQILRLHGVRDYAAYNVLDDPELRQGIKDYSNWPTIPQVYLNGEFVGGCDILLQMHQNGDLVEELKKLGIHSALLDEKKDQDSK

| Substance | Kd [µM] |
| --- | --- |
| BOLA1 (from UniProt Q9Y3E2) | 3 |
| BOLA3 (from UniProt Q53S33) | 3 |
